Measured values from FireProtDB (doi:10.1021/bi00485a005).

Details: Aspergillus oryzae (strain ATCC 42149 / RIB 40), 25 °C, Urea, Fluorescence, NaCl 0.2 M, whole UniProt chain shown

B1: Guanyl-specific ribonuclease T1 wild type, P00651 (protein)
chain: MMYSKLLTLTTLLLPTALALPSLVERACDYTCGSNCYSSSDVSTAQAAGYQLHEDGETVGSNSYPHKYNNYEGFDFSVSSPYYEWPILSSGDVYSGGSPGADRVVFNENNQLAGVITHTGASGNNFVECT
denaturant m value (pH 6.02, MES 30 mM): 1.25 kcal/mol/M | denaturant midpoint (higher = more stable) (pH 6.02, MES 30 mM): 6.58 M | unfolding free energy (pH 6.02, MES 30 mM): 8.24 kcal/mol | denaturant m value (pH 8.02, HEPPSO 30 mM): 1.35 kcal/mol/M | denaturant midpoint (higher = more stable) (pH 8.02, HEPPSO 30 mM): 4.38 M | unfolding free energy (pH 8.02, HEPPSO 30 mM): 5.92 kcal/mol
